Square brackets hold non-standard residues; d marks the D form. Ends that are not written are not given here. * marks the point of attachment. pY = N[C@@H](Cc1ccc(OP(=O)(O)O)cc1)C(=O)O; Dansyl = CN(C)c1cccc2c(S(=O)(=O)*)cccc12
Target: T1, SH2 domain of Crkl protein (residues 1-111), wild type (UniProt P46109 1-111)
T1 construct: Crkl adaptor protein, SH2 domain, residues 1-111; Subcloned in pET28b+; all experiments were done on the N-terminally His-tagged protein; also called Crkl-SH2; Crkl SH2 domain; source: E. coli BL21 (DE3), purified (HisTrap nickel column, desalting); not shown: His tag, N-terminal, kept
Test: stopped-flow fluorescence kinetics (FRET); dansyl-Pax112-123 constant at 2 μM mixed with Crkl-SH2 2 to 10 μM (pseudo-first-order, kon); koff by displacement of the preincubated 2 µM complex with excess non-dansylated Pax112-123 (30 μM); 283 K; 50 mM TrisHCl pH 9.0, 0.5 M NaCl
Details: both partners purified

T1 sequence (P46109 1-111): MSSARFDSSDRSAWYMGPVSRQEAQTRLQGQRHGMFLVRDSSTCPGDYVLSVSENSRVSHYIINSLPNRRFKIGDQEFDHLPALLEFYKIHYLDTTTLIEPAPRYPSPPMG

Kd: 2500 ± 200 nM
koff: 36.1 ± 0.6 s⁻¹
kon: 1.41e+07 ± 900000 M⁻¹ s⁻¹
B1: dansylated Pax_(112–123) peptide (Dans-GEEEHV-pY-SFPNK) (peptide)
peptide: Dansyl-GEEEHV[pY]SFPNK
notes: The dansyl group is the FRET acceptor of Trp14 of the SH2 domain; source: synthetic peptide, bought: GenScript

From article PMC9332313, “Folding and Binding Mechanisms of the SH2 Domain from Crkl” (Biomolecules, 2022)
